Test: soluble fraction after stress (log2 fold change); higher = more stays soluble; pooled small domains, quantitative proteomics
Details: stress: pH 4
How it was run: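 Pooled custom libraries of small protein domains were stressed at pH 4 and then measured by high-throughput quantitative proteomics. The fold change in the amount of each domain that stays soluble after the acid stress serves as a measure of aggregation propensity. Fold changes are given on a log2 scale, and higher values mean more of the domain stayed soluble.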

## HMQYALEDDLDSAIKLLTGKGLSGTVAWGWSDTYINVGKKSYSMEFIAKMLLRLGEGSRVTIQVDPA
  soluble fraction (log2): -1.28

## HMQYIINFEYSGMLLREYLRGVLGLSHGTLTALKKDPLGILLNGEHATVRAVLHAGDRLTLALE
  soluble fraction (log2): -1.13

## HMQYKVMDVTVDGNPVIEFQNLNSKIKWIENNPDAIIQNIKTSSFEADQKRIVGTSRGPFWIVIKPDF
  soluble fraction (log2): -0.299

## HMQYRQRRGLERMELILDAATRVVAEVGYERTTTNAIATRAGISPGSLYQYFSSKEDIASALWERYAE
  soluble fraction (log2): -0.251

## HMRAGEAVTGQVIGVKEDEIILSIAGSKSEGIITRSEFTNEPNVDLTTKVSVGDELEVKVLKVNDGEGMAS
  soluble fraction (log2): -0.244

## HMRAKPLILLDGREISAEELFSLDKNSIKSIEVLKDETALAQYGEKAKNGVVLVVTKSAAAS
  soluble fraction (log2): 0.0982

## HMRALPAGQADLLKWIDGVTPRSVEELELLSGLEPGRLSELLMELELAGIVRAVAGDSYIKISKS
  soluble fraction (log2): -0.534

## HMRAPETEITYTEFKTALRAGQIETATVGIEQISGKLTDGDLYRTVRVDDPDLLKDLEANHVNAAGRV
  soluble fraction (log2): -0.0386

## HMRASQGRNELILSLLRGHELSILELLEGLEKQGVRVARPTLTKDLNELVSRGSVEATAPPRSKNRTYRIP
  soluble fraction (log2): 0.302

## HMRDFLMDSTKNKLSKDQVQLSRIFLWFGNDFGSKAERLEFISRYSGMDFNQPKIDYLTYDWSLNQ
  soluble fraction (log2): -0.207

## HMRDLITYVVQINGKLRGKLEVAPDTDPEELKALALEVENVKRSLEGWVVKKVIVVPGKMVSIAAG
  soluble fraction (log2): -0.105

## HMRDLLPHFQRELQFLQTHRNEFAAAYPELGGRLATASDLLDDPHVERMVQSFALLAARVHKRLDDDF
  soluble fraction (log2): -0.143

## HMRDLTARQQQILALIRQHIADTGFPPTRAEIAAQLGFRSPNAAEEHLKALARKGVIELASGASRGIRLK
  soluble fraction (log2): 0.283

## HMRDPFDALSARERAVASLVQRGLRNKEVASELGLTEGTVKVHLHKVFDKLGIRGRTELILLAQER
  soluble fraction (log2): -0.397

## HMRDQAIDIYKTVHSVAEPYKEVFLLRVLGELSFKEISHIFGKSESWAKVTFFRAKIKVVEKREES
  soluble fraction (log2): -1.04

## HMRDQQHNIYLLEKAKRLYEEFLGDNRHIIAAEMARFEAVLETQDAIIIQRAQQQFSEFLNRFDG
  soluble fraction (log2): -1.2

## HMRDRYEYLKELRLYLSPLGRTEEDRVIEYYAELIGDKIESGIPENGVLSQLGTPRELADKILAETQEY
  soluble fraction (log2): -0.384

## HMRDSLVGLEGVVVREVDDETLAGKVQIGSMEWSARSESGRIPAGRRVVVLRAEGVHIVVKEV
  soluble fraction (log2): -0.121

## HMRDSWNEATKEKRYTEAYDALNSALKKTPATPHALSDALWIARELGRTNEEVQRLEWRLYALLTWIS
  soluble fraction (log2): -0.0517

## HMRDTDAEVTYKLNEPFKTMGSVSVEGKVLEFAGSKWFARAAEFASNTEVYPLAKNRVRLTFTFHGLTAP
  soluble fraction (log2): 0.0243

## HMREEFIGVLDGKVAIFHGRPERKGPLKEVTAIEVDKLPRQEQADLEKGLVIRTDKEKLQLMEGLAALLD
  soluble fraction (log2): -0.171

## HMREELIALYRAIARLSEDEQELLNLFYFARRPLSEIAQLTGMTPGAAKTRLYRARRHLRREMEEDGYG
  soluble fraction (log2): -0.653

## HMREGLRHLRVRMPGGAGETLAMLYREGEVLSQSSDGAFIEVEIRVAQSVAGRLLQMPGVQLTEEVG
  soluble fraction (log2): -0.871

## HMREGNELLGKEGVTVSELRPAGIALIDGRRTDVVTDGEFVAVDQAVEVVEVSGNRVVVRRS
  soluble fraction (log2): 0.0769

## HMREIDIWVAEDADSQRIDKYLSMVVEDLSRSRIASLIEGGSILVNGEVIRAKYKVKPADHITAAFEDEM
  soluble fraction (log2): -0.938

## HMREIKSNEILLEVENLKNSEFFNDINFNIKKGEIVGFSGLIGAGRTELALTLFGYYKAESGKVIQ
  soluble fraction (log2): -0.291

## HMREIRIIAEEGHGRLDAFLAGREELGLSRSRIKGLIEEGQVTLNGAVPKAKQPVSPGDEIVVSVPD
  soluble fraction (log2): -0.0246

## HMREKMKGKILDYNFQESRGIISADDGNRYSFENSQWKGTQSPKVNQIVDFEIDGQNAKDIYLDK
  soluble fraction (log2): 0.0691

## HMRESLSEAERHPRYLEGEDVVRMFLLMGDLSRVEAEVIALQWNAQEADRVGLPQDAKVFRTRAR
  soluble fraction (log2): -0.417

## HMREVDKRYYKINIAGTDRIFTNVYRVGDRYSAYEADKNGKPGKFLYSLSQAEIDRAVISGSFDFK
  soluble fraction (log2): 0.121

## HMREVSPEDLALMRRIDAWHLEHPFAGARLLRDLLRPEGFQAGRRHIGTLMARMGIEALYRK
  soluble fraction (log2): -0.255

## HMREYVGLSPFNKEKTPSFYVNDEKGQFFDFSSGKNGDLITFLQETERLTFMEAVERLAAEAGLPMPA
  soluble fraction (log2): -0.617

## HMRFANGHLIWDTIIELRNAERRINRRALADLTGLKPGVVDDHVERWIEKDQLRRAGNGELEVV
  soluble fraction (log2): -0.24

## HMRFMRVSQSKSKNSTSLYIIESVYTKDNKHTTRIVKKLGTVEELSKEHEDPLAWAKEVAKQMTEEAEQN
  soluble fraction (log2): -0.508

## HMRFNIGNVIEHYKLNTEDLAKVLFPTVKYPKQAFDRVLKGEANLDVIQLERLANHIGVLVTDLF
  soluble fraction (log2): -0.659

## HMRFQGKISDWNDEKGYGFVEPNGGGTRAFVHIKSFTDLPRRPINGDIIIYETTTDEKNRVQANNISFTR
  soluble fraction (log2): -0.163

## HMRFSYLNIETRKDISSLINKSEITHSSYNNNEYLYKIKSKKTDDFKDLISLIDEKDLISYSIDS
  soluble fraction (log2): 0.258

## HMRFTVSDKMDMLLKSLSAGQSMPFKSLFASASTKSEVIVTFLALLELMKLNQFVVWQDQILGEIEIERR
  soluble fraction (log2): -0.162

## HMRGDQLREHLLWTAKDVFLELGFERASMDAVAARAETSKRSLYAHFESKEKLFLAVIDLVRG
  soluble fraction (log2): -1.65

## HMRGESFSTLVSILQEMSARKAAQVLNGLSEGLAVEVLRALPSDVAGDILGRMDAAKAAALMEQLST
  soluble fraction (log2): -0.9

## HMRGGLATLTPRERQVLALMAEGRSNAGIAAELVVSGGAVEKHVASIFTKLGLPPDESDNRRVLAVLRHLG
  soluble fraction (log2): -0.186

## HMRGHASVEIKRIVYKYKLTDQELAKITGMKASDFPIYHDHLQLILPKRYWARVLDALQNYEKEHES
  soluble fraction (log2): ≥ 0.43

## HMRGINDLSLVDPQGRIRKDGEQYVVAFGRHKGKEISQIISQDPSYLNWLLSPKGIEDDATRELIRTQYS
  soluble fraction (log2): -0.0946

## HMRGPTIELLIQKSALYEELDDSENALKEILKAFDRDSLNSDVLNRLVNLLLNDKQIDRAENYNQLLIEK
  soluble fraction (log2): -0.847

## HMRGPVRLDLPVSGLSRSSGPALAKILQAVPGVHKAHVNVRSGKATLEYDPARAKVTDFVEVIRSAGFGT
  soluble fraction (log2): -0.072

## HMRGQGRILAMLKIQPEIATKDLAYLLGIRQQSLNELLKKLEKNSYVERRPSEKDRRVMVVHLTEKGKE
  soluble fraction (log2): 0.0202

## HMRGQLADLWLPREQARRAAEIVAARPVPLGSVKTWIARGKLAPRKTGTGPALYRVGALVSLLAKS
  soluble fraction (log2): 0.133

## HMRGVNEISYTTLISEVSGGNVRDVVISGDEITGTFNDGSRFHSFSPDDPQFIERLNDQGVIINVKPL
  soluble fraction (log2): -0.904

## HMRHDSEGYYRLIGVPPDADDAELKEAAKKRLMEAHPDHGGSEDEFVEVYRAYRTLTDPSARAEYDARP
  soluble fraction (log2): -0.133

## HMRHEDLSPAQKAAALVVAVGSENAAQVLRHLSEEEVEILAGEVARLGEVDPDVVDSVMREVYEQMMGH
  soluble fraction (log2): -0.929

## HMRHKSNRRLTAAHQIEQQIQKLLMENTMEAKELKESLNFAAKDIDTVLSWLVDKDKVRINAINQYYWT
  soluble fraction (log2): -1.28

## HMRHRITEKDKQFRIGQQVWHSEYGKGMVLSVDGIGSSARLTVSFVSGKLAKIIGTFVSTEP
  soluble fraction (log2): -0.982

## HMRIETLESLANRLAYKAYRTGRKVELEPMNPFERRVIHTALQNSKYATTESEGEDMNRHIVIVPKEGG
  soluble fraction (log2): 0.247

## HMRILGIDPGSVVTGYGVIDKSGNYLRHVLHGEIKPHKGYLLSEVLMDIFSKLSAVIVETNPQSV
  soluble fraction (log2): 0.146

## HMRINIVKSKNAEQLYIIHSYRINGKNTSKIYKKLGTMADLLPLHNHDRDQVLAWAKEQARLATEQYDQEN
  soluble fraction (log2): 0.26

## HMRIQLNFSDQLLDDVMSEALKHIDRKSQEHHIEKQMDDEFMLVYIDARLIIQVIVNIINNAIKY
  soluble fraction (log2): -0.912

## HMRITEGEIVEIQEGDNRALVGVGEKLEGIISLDEIRGADGKLLFNVGDKITVMVMGHYNERPK
  soluble fraction (log2): -0.429

## HMRITRREQQVLHLLAMGMTTREIAGHINLTERTVRNRISNLRDKLGAQTASQLLAKAVAQGLIEP
  soluble fraction (log2): 0.426

## HMRIVSGRESMLGRTVVVADWAGERGHVVVDGERWNAVASTPLAAGRRARIVGIDGLTLSVSPDDKP
  soluble fraction (log2): 0.0452

## HMRKAERHLLIKQVIDEFTIRTQEELLAKLSDYGVNATQATISRDIRDLKIVKAPDENGISRFVFF
  soluble fraction (log2): -0.358

## HMRKGDDRLRAQVDEYISKQGNNTFNYKQVAHAINATSPISQRAVALYLAELAFDGDLLETAPGRYKSPSR
  soluble fraction (log2): 0.191

## HMRKIKDVLRLKLHAGLSHERVAASLNISKGVVAKYTSLAAAAGLDWPTVERLSEAALERRLV
  soluble fraction (log2): 0.22

## HMRKIKEVLRLKFETGFSHERIAAAVGVSKGAVTKYVQRAVAAGLGWPLAPERDDAALEALLFPH
  soluble fraction (log2): 0.0455

## HMRKLDQRLAGLLLGKGRLVKATHQQLADELGSVREMVSRLLKGFAEHDLVRMSREQIEIVDAAGLRKLAD
  soluble fraction (log2): -0.611

## HMRKPDLTSVRTLIRSVSKLARHLKISPNGIYRWISVNRIPGAHVVKVANYYDVEIRDLVHLTGSD
  soluble fraction (log2): -0.578

## HMRLADHVVEKLLALVQDRGLQPGQKLPAERQLAEELGVSRTSVREAIQKLTSQGVLSARRGDGTYLQS
  soluble fraction (log2): 0.402

## HMRLARPLTPTEERVLRLLASDMSNAKIGEVLGIRLPTVKSHVSHIMQKLGVTSRAKARTAAQQLGI
  soluble fraction (log2): ≥ 0.43

## HMRLDPENFYIRAVTYYRNGDWQRALSQLDEAIKLGTAIEYPALQARIYLEQGMRDEFIAASEK
  soluble fraction (log2): -1.42

## HMRLDVALRGVLLDGDPTQSRAFVLVSGTTSTYRLGETVQSAELVAINADTITLRTETGLHVIGFDGLI
  soluble fraction (log2): -2.11

## HMRLEYLVDVEEISIKEYLMLLGLSRRLARKIKLYGKMYINHQEAFNYHLVKKGDLLTIEFDE
  soluble fraction (log2): -2.21

## HMRLIDVFELSPKNRTVLQLYYYEGYSVTEISKILKISVNGVTSRLSRARSKLKLEMEAAENE
  soluble fraction (log2): -0.0525

## HMRLMLITPTEFDEAAEIADNLKDRRAVLMNVEKTDNETARRLIDFLSGVVYALGGKIMRISAQAYVLT
  soluble fraction (log2): -0.228

## HMRLPNGYGGVTKLSGRRRKPYMVRKTIGWHIDEKTDKKVQDYVVIGYAATKSEALQMLADYNNNPFDV
  soluble fraction (log2): 0.0101

## HMRLSVVDLQDSLRGLEYPAGKGDLINHAREHNASADVIAVLEQFSERTYRSAADVGEEFGRV
  soluble fraction (log2): -0.166

## HMRLTIAQLSEKTGVPERTIRYYIDRGLVPSAHGERRGAWYDTVHLEPLLRIQQWREAGLSLEAIADLLR
  soluble fraction (log2): -1.17

## HMRMLLEERLDEIVKIVNERGSISNQELVKMFGASESTIRRDITTLANDNRVIRVHGGAMSVVS
  soluble fraction (log2): -0.387

Reference: the domain aggregation screens of Martell et al. (2025)
